Bridge positions count the residues as written; N and C are the ends. Peptide text beside a SMILES is read from it.
T1: cJun bZIP (human, UniProt P05412 252-308, limits assumed)
T1 construct: Purified from a His-SUMO fusion with the tag cleaved off; also called c-Jun bZIP domain; 60 amino acid c-Jun bZIP construct
T1 chain: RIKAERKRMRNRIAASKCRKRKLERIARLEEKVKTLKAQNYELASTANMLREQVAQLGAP


Tests used:
cJun bZIP [1] = molecular target: cJun bZIP (Homo sapiens, UniProt P05412, S292Y); assay: CD spectra and thermal denaturation of peptide/cJun heterodimers; details: peptide (5 μM)/c-Jun (5 μM) heterodimer; Table 6
Experimental: Circular Dichroism (CD): An Applied Photophysics Chirascan was used for CD measurements, with a 200 μL sample in a 1 mm path length CD cell. Protein/DNA samples were suspended in 150 mM potassium phosphate, 150 mM potassium fluoride and 5 mM TCEP at pH 7.4 and were equilibrated for 30 minutes before measurement. […] These scans were averaged and converted to molar residue ellipticities (MRE). Thermal denaturation experiments were performed by measuring the ellipticity at 222 nm over a 1 to 90° C. gradient at 1° C. increments. Post-melt scans at 20° C. confirmed the transitions were reversible as they overlaid within 10% of the pre-melt scan.
Circular Dichroism (CD): An Applied Photophysics Chirascan was used for CD measurements, with a 200 μL sample in a 1 mm path length CD cell. Protein/DNA samples were suspended in 150 mM potassium phosphate, 150 mM potassium fluoride and 5 mM TCEP at pH 7.4 and were equilibrated for 30minutes before measurement. […] Thermal denaturation experiments were performed by measuring the ellipticity at 222 nm over a 1 to 90° C. gradient at 1° C. increments. Post-melt scans at 20° C. confirmed the transitions were reversible as they overlaid within 10% of the pre-melt scan.
Peptide helicity was determined by quantifying the CD signal at 222 nm of peptide only samples. Thermal denaturation experiments were then used to determine the Tm of peptide-c-Jun heterodimers, which was used as an approximate measure of target engagement. […] The same 60 amino acid c-Jun bZIP construct was used for all experiments, regardless of antagonist peptide length.

cJun bZIP [2] = molecular target: T1, cJun bZIP; assay: CD thermal denaturation, peptide 5 µM and c-Jun 5 µM
cJun bZIP [3] = molecular target: T1, cJun bZIP; assay: cell-based or functional assay
cJun bZIP [4] = molecular target: T1, cJun bZIP; assay: ITC (PEAQ-ITC), peptide injected into cJun, one site model

Molecule	Tm (° C.) (cJun bZIP [1])	Tm (° C.) of peptide-c-Jun heterodimer (cJun bZIP [2])	IC50 CD (cJun bZIP [3])	other results
Ac-KEAEDLVVEEDVLEEEIEQLEERNYALRKEIKDLQDQ-NH2 [Peptide 12]	56.5 ± 1.6 °C	–	–	–
CC[C@H](C)[C@H](NC(=O)[C@H](CCC(=O)O)NC(=O)[C@H](CCCCN)NC(=O)[C@H](CCCNC(=N)N)NC(=O)[C@H](CC(C)C)NC(=O)[C@H](C)NC(=O)[C@H](Cc1ccc(O)cc1)NC(=O)[C@H](CC(N)=O)NC(=O)[C@H](CCCNC(=N)N)NC(=O)[C@@H]1CC(=O)NCCCC[C@H](NC(=O)[C@@H](NC(=O)[C@H](CCC(=O)O)NC(=O)[C@H](CCC(=O)O)NC(=O)[C@H](CCC(=O)O)NC(=O)[C@H](CC(C)C)NC(=O)[C@@H](NC(=O)[C@H](CC(=O)O)NC(=O)[C@H](CCC(=O)O)NC(=O)[C@H](CCC(=O)O)NC(=O)[C@@H](NC(=O)[C@@H](NC(=O)[C@H](CC(C)C)NC(=O)[C@H](CCC(=O)O)NC(=O)[C@H](CCC(=O)O)NC(=O)[C@H](C)NC(=O)[C@H](CCC(=O)O)NC(C)=O)C(C)C)C(C)C)C(C)C)[C@@H](C)CC)C(=O)N[C@@H](CCC(N)=O)C(=O)N[C@@H](CC(C)C)C(=O)N[C@@H](CCC(=O)O)C(=O)N1)C(=O)N[C@@H](CCC(=O)O)C(=O)N[C@@H](CC(=O)O)C(=O)N[C@@H](CC(C)C)C(=O)N[C@@H](CCC(N)=O)C(=O)N[C@@H](CCCCN)C(=O)N[C@@H](CCC(N)=O)C(N)=O [Peptide 19] (Ac-EAEELVVEEDVLEEEIKQLEDRNYALRKEIEDLQKQ-NH2; lactam 17-21 (inferred))	60.9 ± 3.6 °C	–	–	–
Ac-LVVEEDVLEEEIEQLEERNYALRKEIEDLQKQLEDL-NH2 [Peptide 9]	62.1 ± 1.4 °C	–	–	–
Ac-EAKELVDEEDVLEEEIEQLEERNYALRKEIEDLQKQ-NH2 [Peptide 14]	57.5 ± 1.1 °C	–	–	–
Ac-EAEELVVEEDVLEEEIEQLEERNYALRKEIKDLQDQ-NH2 [Peptide 22]	55.6 ± 1.2 °C	–	–	–
Ac-EAEELVVEEDVLEEEIEQLEERNYALRKEIEDLQ-NH2 [Peptide 28]	53.8 ± 5.3 °C	–	–	–
CC[C@H](C)[C@H](NC(=O)[C@H](CCC(=O)O)NC(=O)[C@@H]1CC(=O)NCCCC[C@H](NC(=O)[C@H](CC(N)=O)NC(=O)[C@H](CCCCN)NC(=O)[C@H](CCC(=O)O)NC(=O)[C@H](CCC(=O)O)NC(=O)[C@H](CC(C)C)NC(=O)[C@H](CCC(N)=O)NC(=O)[C@H](CCC(=O)O)NC(=O)[C@@H](NC(=O)[C@H](CCC(=O)O)NC(=O)[C@H](CCC(=O)O)NC(=O)[C@H](CCC(=O)O)NC(=O)[C@H](CC(C)C)NC(=O)[C@@H](NC(=O)[C@H](CC(=O)O)NC(=O)[C@H](CCC(=O)O)NC(=O)[C@H](CCC(=O)O)NC(=O)[C@@H](NC(=O)[C@@H](NC(=O)[C@H](CC(C)C)NC(=O)[C@H](CCC(=O)O)NC(=O)[C@H](CCC(=O)O)NC(=O)[C@H](C)NC(=O)[C@H](CCC(=O)O)NC(C)=O)C(C)C)C(C)C)C(C)C)[C@@H](C)CC)C(=O)N[C@@H](C)C(=O)N[C@@H](CC(C)C)C(=O)N[C@@H](CCCCN)C(=O)N1)C(=O)N[C@@H](CCC(=O)O)C(=O)N[C@@H](CC(=O)O)C(=O)N[C@@H](CC(C)C)C(=O)N[C@@H](CCC(N)=O)C(=O)N[C@@H](CCCCN)C(=O)N[C@@H](CCC(N)=O)C(=O)N[C@@H](Cc1ccc(O)cc1)C(N)=O [Peptide 21] (Ac-EAEELVVEEDVLEEEIEQLEEKNKALKDEIEDLQKQY-NH2; lactam 24-28)	58.9 ± 1.0 °C	–	–	–
Ac-EAEELVVEEKVLEDEIEQLEERNYALRKEIEDLQKQ-NH2 [Peptide 16]	54.9 ± 1.2 °C	–	–	–
Ac-EDVLEEEIEQLEERNYALRKEIEDLQKQLEKLY-NH2 [Peptide 7]	64.3 ± 1.3 °C	–	–	–
Ac-EAEELVVEEDVLEEEIKQLEDRNYALRKEIEDLQKQ-NH2 [Peptide 18]	55.5 ± 1.7 °C	–	–	–
Ac-EAEELVVEEDVLEEEIEQLEEKNKALKDEIEDLQKQY-NH2 [Peptide 20]	56.2 ± 1.3 °C	–	–	–
Ac-EAEELVVEEDVLEEEIEQLEERNYALRKEIKDLQDQ-NH2 (Synthetic, NΔ20 CΔ7; also called linear form of 22/23) [HingeW peptide variant 22]	–	55.6 ° C.	101 µM	–
Ac-EAKELVDEEDVLEEEIEQLEERNYALRKEIEDLQKQ-NH2 (Synthetic, NΔ20 CΔ7; also called linear form of 14/15) [HingeW variant peptide 14]	–	57.5 ° C.	100 µM	–
Ac-EAEELVVEEDVLEEEIKQLEDRNYALRKEIEDLQKQ-NH2 (lactam 17-21; SMILES CC[C@H](C)[C@H](NC(=O)[C@H](CCC(=O)O)NC(=O)[C@H](CCCCN)NC(=O)[C@H](CCCNC(=N)N)NC(=O)[C@H](CC(C)C)NC(=O)[C@H](C)NC(=O)[C@H](Cc1ccc(O)cc1)NC(=O)[C@H](CC(N)=O)NC(=O)[C@H](CCCNC(=N)N)NC(=O)[C@@H]1CC(=O)NCCCC[C@H](NC(=O)[C@@H](NC(=O)[C@H](CCC(=O)O)NC(=O)[C@H](CCC(=O)O)NC(=O)[C@H](CCC(=O)O)NC(=O)[C@H](CC(C)C)NC(=O)[C@@H](NC(=O)[C@H](CC(=O)O)NC(=O)[C@H](CCC(=O)O)NC(=O)[C@H](CCC(=O)O)NC(=O)[C@@H](NC(=O)[C@@H](NC(=O)[C@H](CC(C)C)NC(=O)[C@H](CCC(=O)O)NC(=O)[C@H](CCC(=O)O)NC(=O)[C@H](C)NC(=O)[C@H](CCC(=O)O)NC(C)=O)C(C)C)C(C)C)C(C)C)[C@@H](C)CC)C(=O)N[C@@H](CCC(N)=O)C(=O)N[C@@H](CC(C)C)C(=O)N[C@@H](CCC(=O)O)C(=O)N1)C(=O)N[C@@H](CCC(=O)O)C(=O)N[C@@H](CC(=O)O)C(=O)N[C@@H](CC(C)C)C(=O)N[C@@H](CCC(N)=O)C(=O)N[C@@H](CCCCN)C(=O)N[C@@H](CCC(N)=O)C(N)=O, Synthetic, NΔ20 CΔ7; also called cyclised form of 18/19) [HingeW variant peptide 19]	–	60.9 ° C.	94.4 µM	–
Ac-EAEELVVEEDVLEEEIKQLEDRNYALRKEIEDLQKQ-NH2 (Synthetic, NΔ20 CΔ7; also called linear form of 18/19) [HingeW variant peptide 18]	–	55.5 ° C.	98.9 µM	–
Ac-EAEELVVEEKVLEDEIEQLEERNYALRKEIEDLQKQ-NH2 (Synthetic, NΔ20 CΔ7; also called linear form of 16/17) [HingeW variant peptide 16]	–	54.9 ° C.	114 µM	–
Ac-EAEELVVEEDVLEEEIEQLEEKNKALKDEIEDLQKQY-NH2 (Synthetic, NΔ20 CΔ7; also called linear form of 20/21) [HingeW variant peptide 20]	–	56.2 ° C.	121 µM	–
Ac-LVVEEDVLEEEIEQLEEKNKALKDEIEDLQKQLEKLY-NH2 (also: table prints a different, shorter sequence for 7/8, also called linear form of 7/8) [HingeW variant peptide 7]	–	64.3 ° C.	83.9 µM	–
Ac-EAEELVVEEDVLEEEIEQLEEKNKALKDEIEDLY-NH2 [HingeW variant peptide 26]	–	–	1560 µM	–
Ac-EAEELVVEEDVLEEEIEQLEERNYALRKEIEDLQ-NH2 (Synthetic, NΔ20 CΔ9; also called linear form of 28/29) [HingeW variant peptide 28]	–	53.8 ° C.	725 µM	–
Ac-KEAEDLVVEEDVLEEEIEQLEERNYALRKEIKDLQDQ-NH2 (Synthetic, NΔ19 CΔ7; also called linear form of 12/13) [HingeW variant peptide 12]	–	56.5 ° C.	115 µM	–
Ac-EAEELVVEEDVLEEEIEQLEEKNKALKDEIEDLQKQY-NH2 (lactam 24-28 (inferred), Synthetic, NΔ20 CΔ7; also called cyclised form of 20/21) [HingeW variant peptide 21]	–	58.9 ° C.	94.1 µM	–
Ac-LVVEEDVLEEEIEQLEERNYALRKEIEDLQKQLEDL-NH2 (Synthetic, NΔ24 CΔ3; also called linear form of 9/10) [HingeW variant peptide 9]	–	62.1 ° C.	94.6 µM	–
Ac-EAEELVVEEDVLEEEIEQLEERNYALRKEIEDLQKQLEKL-NH2 (Synthetic, NΔ20 CΔ3) [HingeW variant peptide 4]	–	64.1 ° C.	45.4 µM	-TΔS (cJun bZIP [4]): 150 kJ/mol; Kd (cJun bZIP [4]): 0.0911 µM; Stoichiometry, n (cJun bZIP [4]): 0.91; ΔG (cJun bZIP [4]): -40.5 kJ/mol; ΔH (cJun bZIP [4]): -190 kJ/mol

From US20250188151A1, “C-JUN ANTAGONIST PEPTIDES” (The University of Bath, priority 2022, published 2025)
